In PMC10477244:
Residue numbers refer to the chain shown, from its start.

B1: aptamer U (Apt@U2) (ssDNA)
DNA: GGTATTGAGGGTCGCATCGTAATAGCGCATGTTGTGAGGCGGCGGAGTCATGTCGTGGGATGGCTCTAACTCTCCTCT
B2: aptamer T (Apt@T2) (ssDNA)
DNA: GGTATTGAGGGTCGCATCGTAATAGCGCATGTTGTGAGGCAGGCGCGAATCAGCTCGTGAGATGGCTCTAACTCTCCTCT
B3: aptamer R (Apt@R2) (ssDNA)
DNA: GGTATTGAGGGTCGCATCGTTACTGGACCAAACAGCACAAAGGACGCCCATAAACCCGGATGGCTCTAACTCTCCTCT
B4: aptamer S (Apt@S2) (ssDNA)
DNA: GGTATTGAGGGTCGCATCGAAACAGGGCGTGATACGACGCGACGGCGTACTGTGGTGGGATGGCTCTAACTCTCCTCT
B5: aptamer W (Apt@W2) (ssDNA)
DNA: B4 DNA with A21C, A24C, C28A, A37T, C43G, G44C, G45A, G55T

How the values were obtained:
[1] = molecular target: T1, SARS-CoV-2 spike RBD (BEI NR-53800) (SARS-CoV-2 Wuhan-Hu-1, UniProt P0DTC2 319-541); assay: ELISA-type bead assay (SA-HRP/TMB)
[2] = molecular target: T1, SARS-CoV-2 spike RBD (BEI NR-53800); assay: ELISA-type bead assay (SA-HRP/TMB); 0.3 uM aptamer
[3] = molecular target: T1, SARS-CoV-2 spike RBD (BEI NR-53800); assay: fluorescence binding, carbon-dot aptamer on Ni-NTA@RBD

Binder	binding result [1]	binding result [2]	also measured
B1	binds	–	–
B2	–	binds	–
B3	–	–	Kd [3]: 125 nM
B4	–	binds	–
B5	binds	–	–
